The source of these data is patent US20230227537A1 (VIB VZW, published 2023).

For test [1], the target named is T1, SARS-CoV RBD (SARS-CoV-1, UniProt P59594 320-502).
Test [2] concerns the target T2, 2019-nCoV RBD (purified recombinant) (SARS-CoV-2, UniProt P0DTC2 330-518).
Test [3] concerns the target T3, SARS-CoV NTD (N-terminal domain) (SARS-CoV-1, UniProt P59594 14-276).
T3 sequence: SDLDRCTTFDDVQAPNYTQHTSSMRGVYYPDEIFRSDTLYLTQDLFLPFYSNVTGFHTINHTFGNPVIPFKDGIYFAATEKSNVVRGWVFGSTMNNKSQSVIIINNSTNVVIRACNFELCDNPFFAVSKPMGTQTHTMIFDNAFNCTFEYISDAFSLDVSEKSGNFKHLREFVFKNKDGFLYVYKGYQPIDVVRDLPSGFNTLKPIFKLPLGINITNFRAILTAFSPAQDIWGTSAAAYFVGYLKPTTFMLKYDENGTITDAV
The test is described as follows: ELISA, coated antigen.

The target in test [4] is SARS-CoV-1 spike, full length, on cells or on pseudotyped virus (SARS-CoV-1, UniProt P59594 14-1255). The test is described as follows: cell-based or functional assay.
Test [5] concerns the target T1, SARS-CoV RBD. The test is described as follows: SPR, His-tagged VHH on NTA chip, RBD as analyte.
Test [6] concerns the target T2, 2019-nCoV RBD (purified recombinant). The test is described as follows: SPR, His-tagged VHH on NTA chip, RBD as analyte. (In general: In SPR one partner is held on a chip, and binding of the other changes the refractive index at the surface.)
The target in test [7] is SARS-CoV-2 RBD protein Avi-tag biotinylated (AcroBiosystems SPD-C82E9) (SARS-CoV-2, UniProt P0DTC2 330-518). The test is described as follows: competition AlphaLISA; competitor human ACE2-mFc. On the technique in general: Bead proximity is the source of the signal in Alpha formats.
Test [8] addresses T4, Mouse IgG1 Fc fused SARS-CoV-2 RBD (Sino Biological) (SARS-CoV-2; mouse, UniProt P0DTC2 330-518).
The target of test [9] is SARS-CoV-2 spike, full length, on cells or on pseudotyped/authentic virus (SARS-CoV-2, UniProt P0DTC2 14-1273). The test is described as follows: cell-based or functional assay.
The target of test [10] is T4, Mouse IgG1 Fc fused SARS-CoV-2 RBD …. The test is described as follows: BLI, RBD-mFc on AMC tips, global 1:1 fit. (In BLI a coated tip is dipped into the sample, and binding shifts an interference pattern.)

Changes are numbered by the printed parent chain.

B1: SARS VHH-72 (VHH)
VHH: QVQLQESGGGLVQAGGSLRLSCAASGRTFSEYAMGWFRQAPGKEREFVATISWSGGSTYYTDSVKGRFTISRDNAKNTVYLQMNSLKPDDTAVYYCAAAGLGTVVSEWDYDYDYWGQGTQVTVSS
As for B1, in the test with SARS-CoV RBD [1], the dissociation rate constant (koff) is 0.0033 s⁻¹ and the kon was 2.86e+06 M⁻¹ s⁻¹. In test [2], the koff came to 3.13 s⁻¹ and the kon was determined as 8.09e+07 M⁻¹ s⁻¹. Besides, in test [3], the binding result is reported as “no binding”. The “IC50, pseudotyped lentivirus neutralization, Huh7.5 cells, luciferase” value in test [4] came to 0.14 µg/mL. This molecule also had a Kd with SARS-CoV RBD [5] of 1.15 nM. Also, the Kd in [6] worked out at 38.7 nM. Also, in test [7], the “% inhibition” value is 97% and the IC50 came to 26.7 nM.

B2: D72-16: h1-VHH72-GS-hIgG1hinge-hIgG1Fc (Fc fusion)
chain: EVQLVESGGGLVQPGGSLRLSCAASGRTFSEYAMGWFRQAPGKEREFVATISWSGGSTYYTDSVKGRFTISRDNAKNTVYLQMNSLRPEDTAVYYCAAAGLGTVVSEWDYDYDYWGQGTLVTVSSGS
notes: ExpiCHO
As to B2, the EC50 in [8] turned out to be 0.00965 µg/mL. Besides, the “IC50, plaque reduction neutralization, authentic SARS-CoV-2” value in test [9] was 0.94 µg/mL. In [10], the Kd stood at 0.102 nM, the koff is 0.000191 s⁻¹ and the kon came to 1.89e+06 M⁻¹ s⁻¹.

B3: D72-02: VHH72-GS-hIgG1hinge-hIgG1Fc (Fc fusion)
chain: B2 chain with E1Q, V5Q, P14A, R87K, E89D, L120Q
Consider B3, for which the response in test [8] was half-maximal at 0.00695 µg/mL (EC50). Also, the “IC50, plaque reduction neutralization, authentic SARS-CoV-2” value in test [9] worked out at 1.01 µg/mL. In [10], this molecule yielded a Kd of 0.142 nM, a koff of 0.00026 s⁻¹ and a kon of 1.83e+06 M⁻¹ s⁻¹.

As usually defined, the koff is a measure of how fast the partners let go of each other. Usually kon stands for a measure of how fast the partners come together. As a reminder, the Kd is a measure of binding affinity in units of concentration. In general, % inhibition refers to the relative decrease from the control value, in per cent. Read a low % inhibition as little suppression. The term IC50 denotes the concentration that inhibits the measured activity by half. Higher therefore signals lower potency. A word on the EC50: it is the concentration that produces a half-maximal response. Lower therefore signals an effect from little substance.
